Source: patent publication US20090053807 (published 2009)
Positions of bridges follow the written chain, without caps; N, C: chain ends. Non-standard residues stand in square brackets, D forms with d. No end group written: not given here. Hyp = O=C(O)[C@@H]1C[C@@H](O)CN1; Tic = O=C(O)[C@@H]1Cc2ccccc2CN1; Abu = CC[C@H](N)C(=O)O

B1: S396 (peptide)
chain: GSLDESFYDWFER
B2: H2C (D117) (peptide)
chain: FHENFYDWFVQRVSKK
B3: S371 (RP9) (peptide)
chain: GSLDESFYDWFERQLGKK
B4: E8 (D120) (peptide)
chain: GGTVWPGYEWLRNA
B5: S223 (peptide)
chain: FHENFYDWAVRQVSKK
B6: S214 (peptide)
chain: AFYEWFAKK
B7: S366 (peptide)
chain: PLRESRNFYDWFVQQLE
B8: S289 (peptide)
chain: DPFYQGLWEWLRESGEE
B9: S220 (peptide)
chain: FHENFADWFVRQVSKK
B10: S222 (peptide)
chain: FHENFYDAFVRQVSKK
B11: S114 (peptide)
chain: [dF][dH][dE][dN][dF][dY][dD][dW][dF][dV][dR][dQ][dV][dS][dK][dK]
B12: S283 (peptide)
chain: APVSTEELRWGALLFGQWAG
B13: S183 (peptide)
chain: FYDWFA
B14: S215 (peptide)
chain: AFYGWFAKK
B15: S401 (peptide)
chain: ESFYDWFER
B16: S268 (peptide)
chain: RD[Hyp]FYDWEDD[dI]
B17: S122 (peptide)
chain: HPTSKEIYAKLLK
B18: S317 (peptide)
chain: WFGYAWLS
B19: S282 (peptide)
chain: HLSVGEELSWWVALLGQWAR
B20: S403 (peptide)
chain: ESFYDWF
B21: S167 (peptide)
chain: AFYDWFAKK
B22: S402 (peptide)
chain: ESFYDWFE
B23: S266 (peptide)
chain: [Abu]CLEE[dW]GASL[Tic]QCSG
modifications: disulfide 2-13 (inferred)
B24: S219 (peptide)
chain: FHENAYDWFVRQVSKK
B25: S397 (peptide)
chain: GSLDESFYDWFE
B26: S118 (peptide)
chain: SDGEYNAIELLS
B27: S398 (peptide)
chain: GSLDESFYDWF
B28: S165 (peptide)
chain: FYDWF
B29: S181 (peptide)
chain: AFYDWFA
B30: S182 (peptide)
chain: AFYDWF
B31: S184 (peptide)
chain: Ac-FYDWF
B32: S113 (peptide)
chain: AHENFYDWFVRQVSKK
B33: S284 (peptide)
chain: ALEEEWAWVQVRSIRSGLPL
B34: S180 (peptide)
chain: AFYDWFAK
B35: S166 (peptide)
chain: FYDWFKK
B36: S278 (peptide)
chain: GFREGQRWYWFVAQVT
B37: S216 (peptide)
chain: AFYKWFAKK
B38: S108 (peptide)
chain: FHENFYDWFVAQVSKK

molecular target: T1, human insulin receptor (HIR) (human, UniProt P06213); assay: competition

Binder | Kd [µM]
B1 | > 20

molecular target: mIR (human, UniProt P06213); assay: FP vs FITC-RP9

Binder | IC50 [µM]
B2 | 0.77
B3 | 0.049
B4 | > 100

molecular target: T1, human insulin receptor (HIR); assay: competition; remark: another data set of the same source

Binder | Kd [µM]
B1 | > 20

molecular target: T1, human insulin receptor (HIR); assay: competition; remark: another data set of the same source

Binder | Kd [µM]
B5 | > 20
B6 | > 20
B7 | 3.7
B8 | > 20
B1 | > 20
B9 | > 20
B10 | > 20
B11 | 8.3
B12 | > 20
B13 | > 20
B14 | > 20
B15 | > 20
B16 | 0.45
B17 | 93
B18 | > 20
B19 | > 20
B20 | > 20
B21 | > 20

Binder | Kd [µM]
B22 | > 20
B23 | > 20
B24 | > 20
B25 | > 20
B26 | 2.4
B27 | > 20
B28 | > 20
B29 | > 20
B30 | > 20
B31 | > 20
B32 | 5.9
B33 | > 20
B34 | > 20
B35 | > 20
B36 | > 20
B37 | > 20
B38 | 7.5
